Experimental data as given in paper PMC5465037.

Target: wild-type desmin, human (human) (UniProt P17661)
Assay: co-sedimentation

percent of desmin pelleted at 22 °C: 83.8% | percent of desmin pelleted at 37 °C: 93.3% | percent of desmin pelleted at 44 °C: 94.3%
Substance: wild-type desmin, human (from UniProt P17661 1-470) (natural protein)
